# Assay results from patent US20120288474A1, “COMPOSITION FOR TREATMENT OF CXCL8-MEDIATED LUNG INFLAMMATION” (PROTAFFIN BIOTECHNOLOGIE AG, priority 2009, published 2012).
# B1: PA401: del6F17KF21KE70KN71K IL-8 mutant; modified IL-8 with increased GAG binding affinity and down-regulated GPCR activity (protein, UniProt P10145 23-99, looked up, variant del1-6 F17K F21K E70K N71K)
# Interleukin-8: AVLPRCQCIKTYSKPKHPKKIKELRVIESGPHCANTEIIVKLSDGRELCLDPKENWVQRVVEKFLKRAKKS
# Legend:
# Assay type in all cases: in vivo
# [1] = system: C57BL/6J female mice exposed to cigarette smoke; assay: Acute model of cigarette smoke induced lung inflammation, four-day exposure (Example 3)
# Procedure: Lung inflammation was induced in C57BL/6J female mice (a susceptible strain) by exposure to cigarette smoke of 4 to 6 cigarette over a four-day period. Dose response activity of subcutaneous PA401 treatment at the doses of 4, 40 and 400 μg/kg administered at t=+30 min and t=+6 h from smoke exposure, on cell infiltrates on bronchoalveolar lavages was evaluated 24 h after last cigarette smoke exposure. Air exposed, and Roflumilast (5 mg/kg oral) treated animals serve as controls.
# [2] = system: C57BL/6J female mice exposed to cigarette smoke; assay: Sub-chronic model of cigarette smoke induced lung inflammation, eleven-day exposure, dose frequency (Example 4)
# Procedure: In this study lung inflammation was induced in C57BL/6J female mice by exposure to cigarette smoke of 4 to 6 cigarettes over an eleven-day period. Dose frequency activity of subcutaneous PA401 treatment at the optimal dose of 400 μg/kg, based on the study in example 3, administered at t=+30 min and t=+6 h from smoke exposure (twice a day: b.i.d.), once daily at +3 h (q.d) and every other day (q.o.d) at +3 h, on cell infiltrates on bronchoalveolar lavages was evaluated 24 h after last cigarette smoke exposure. Air exposed, and Roflumilast (5 mg/kg oral) treated animals serve as controls.
# [3] = system: C57BL/6J female mice intranasal instilled with LPS; assay: LPS-induced acute lung inflammation, intranasal LPS instillation (Example 1)
# Procedure: To assess potential of PA401 as anti-inflammatory in models of acute lung neutrophilia, a dose-response study with subcutaneous administration of PA401 at doses of 4, 40, 200 and 400 μg/Kg in C57BL/6J female mice intranasal instilled with LPS (0.3 μg/mouse, serotype […]) was performed. Sham instilled (saline) and Dexamethasone 3 mg/kg s.c. (administered at t=−1 h before LPS instillation) treated animals were used as controls. Bronchoalveolar lavage (BAL) was performed 4 h post LPS instillation and total cell count on BAL samples, as well as differential cell count on BAL cytospin were measured.
# [4] = system: male Balb/c mice aerosolized with LPS; assay: LPS aerosol acute lung inflammation, s.c. or i.v. treatment (Example 2)
# Procedure: A second study was performed using a slightly different model, which imply a different mouse strain and gender (male Balb/c instead of C57BL/6) a different LPS strain and serotype (Salmonella enterica instead of E. Coli) and a different LPS administration (aerosol—3.5 mg/7 mL over 30 min—instead of intranasal). PA401 doses of 4, 40 and 400 μg/kg were administered either by s.c. or i.v. route at t=−5 and t=+3 h from LPS exposure. BAL total and differential cell count were evaluated at t=8 h, a later time point compared to the previous study.
# Saline aerosolized mice and mice receiving an intra tracheal administration of Dexamethasone (20 μg/20 ∥l/mouse at t=−1 h) were used as control.
# [5] = system: C57BL/6J female mice exposed to cigarette smoke; assay: Sub-chronic model of cigarette smoke induced lung inflammation, eleven-day exposure, 400 vs 40 μg/kg (Example 5)
# Procedure: In this study lung inflammation was induced in C57BL/6J female mice by exposure to cigarette smoke of 4 to 6 cigarettes over an eleven-day period. PA401 at the dose of 400 μg/kg daily subcutaneous was compared to the dose of 40 μg/kg daily subcutaneous. Treatment was performed at t+3 h and effects on cell infiltrates on bronchoalveolar lavages were evaluated 24 h after last cigarette smoke exposure. Air exposed, Roflumilast (5 mg/kg oral) treated animals as well as animals treated with the CXCR2 antagonist SCH527123 (10 mg/kg twice a day oral-total daily dose 20 mg/kg) serve as controls.
# [6] = system: male Balb/c mice exposed to LPS aerosol; assay: LPS aerosol lung inflammation, intra-tracheal local delivery to the lung (Example 6)
# Procedure: In this experiment lung inflammation was induced by the delivery of LPS by aerosol (Salmonella enterica, 3.5 mg/7 mL over 30 min) in male Balb/c mice. PA401 was administered intra-tracheally (i.t.) using a MicroSprayer (FJM-250 syringe; PennCentury), a device that allows delivery of a plume of aerosol (mass median diameter 16-22 μm) directly into the lungs. PA401 i.t. administration was performed at the doses of 100, 40, 10 and 4 μg/kg either 1 h before LPS exposure, or 1 h after the end of LPS exposure. Bronchoalveolar lavage (BAL) was performed 8 h post LPS exposure and total cell and neutrophil numbers were measured. Dexamethasone 20 μg/20 μl mouse i.t. was used as reference compound.
# [7] = 400 μg/kg s.c., all treatment frequencies (b.i.d., q.d., q.o.d.)
# [8] = 400 μg/kg s.c., b.i.d. and q.d.
# [9] = s.c. 4-400 μg/Kg, BAL cytospin 4 h post LPS
# [10] = i.t. 100, 40, 10 and 4 μg/kg, 1 h before or 1 h after LPS, BAL 8 h post LPS
molecule,measurement,setting,value
B1,"cell subtypes (neutrophil, macrophage, epithelial cells, lymphocyte) in BAL at the other two doses",[1]; 4 and 40 μg/kg s.c.,Significant effect on most of these cell subtypes
same,total cell infiltrates in BAL,[1]; 40 and 400 μg/kg s.c.,Highly significant effect
same,inhibitory effect compared with Roflumilast 5 mg/kg,"[1]; PA401 400 μg/kg s.c., Roflumilast 5 mg/kg oral",comparable of that obtained with Roflumilast 5 mg/kg
same,epithelial cells numbers in BAL,[1]; highest dose (400 μg/kg s.c.),significantly reduced
same,lymphocyte numbers in BAL,[1]; highest dose (400 μg/kg s.c.),significantly reduced
same,macrophage numbers in BAL,[1]; highest dose (400 μg/kg s.c.),significantly reduced
same,neutrophil numbers in BAL,[1]; highest dose (400 μg/kg s.c.),significantly reduced
same,cigarette smoke induced increase in total cell number recovered in the BAL,"[1]; s.c. 4, 40 and 400 μg/kg at +30 min and +6 h, BAL 24 h after last exposure",dose dependently inhibited
same,total cell infiltrates in BAL,"[2]; 400 μg/kg s.c. twice a day, daily and every other day, 11-day smoke",Significant effect
same,epithelial cells numbers in BAL,[2]; [7],significantly reduced
same,neutrophil numbers in BAL,[2]; [7],significantly reduced
same,lymphocyte numbers in BAL,[2]; [8],significant reduction
same,macrophage numbers in BAL,[2]; [8],significant reduction
same,"activity on mixed cell infiltration, twice a day vs once a day","[2]; 400 μg/kg subcutaneously, 11-day repeated exposure",comparable activity
same,inhibitory effect compared with Roflumilast 5 mg/kg,"[2]; PA401 400 μg/kg s.c. twice and once a day, Roflumilast 5 mg/kg oral",comparable of that obtained with Roflumilast 5 mg/kg
same,inhibition of cell infiltration in the BAL compared with Dexamethasone 3 mg/kg,"[3]; PA401 200 and 400 μg/kg s.c., Dexamethasone 3 mg/kg s.c.",comparable to that obtained with the treatment with a high dose of Dexamethasone
same,total number of cells infiltrated in lung as assessed in the BAL fluid,"[3]; s.c. 4, 40, 200 and 400 μg/Kg, BAL 4 h post LPS instillation",dose-dependent reduction
same,number of lymphocytes in BAL,[3]; [9],significant reduction
same,number of neutrophils in BAL,[3]; [9],significant reduction
same,lowest dose with significant effect on neutrophils and lymphocytes,"[3]; s.c., BAL 4 h post LPS",4 µg/kg
same,number of total cells in the BAL,"[4]; 4, 40 and 400 μg/kg s.c. or i.v. at t=-5 and t=+3 h from LPS, BAL at t=8 h",highly significant reduction
same,neutrophils count in the BAL,"[4]; 4, 40 and 400 μg/kg s.c. or i.v., BAL at t=8 h",reduction
same,inhibitory effect compared with intra tracheal dexamethasone,"[4]; PA401 i.v., Dexamethasone 20 μg/mouse i.t. at t=-1 h",reaching the same inhibitory effects of intra tracheal administration of dexamethasone
same,activity by route of administration (intravenous vs subcutaneous),"[4]; i.v. vs s.c., BAL at t=8 h",more significant when administered by intravenous than by subcutaneous route
same,epithelial cells numbers in BAL,[5]; 400 and 40 μg/kg daily s.c.,significant reduction
same,lymphocyte numbers in BAL,[5]; 400 and 40 μg/kg daily s.c.,significant reduction
same,macrophage numbers in BAL,[5]; 400 and 40 μg/kg daily s.c.,significant reduction
same,neutrophil numbers in BAL,[5]; 400 and 40 μg/kg daily s.c.,significant reduction
same,total cell infiltrates in BAL,"[5]; 400 and 40 μg/kg daily s.c., 11-day smoke",Significant effect
same,inhibitory effect compared with Roflumilast and CXCR2 antagonist SCH527123,"[5]; PA401 400 μg/kg daily s.c., Roflumilast 5 mg/kg oral, SCH527123 10 mg/kg twice a day oral",comparable of that obtained with Roflumilast 5 mg/kg and the CXCR2 antagonist SCH527123
same,neutrophil number in BAL,[6]; [10],neutrophil number reduction
same,total cells in BAL,[6]; [10],significant dose dependent reduction
same,activity on BAL cell counts at single doses,"[6]; i.t. doses of 100, 40 and 10 μg/kg",significantly active
same,improved activity of therapeutic treatment (t=+1 h) compared to prophylactic treatment (-1 h),"[6]; i.t., BAL 8 h post LPS",about 10%
